From the supplement of paper PMC9732359
± gives the uncertainty stated by the source.

Assay: protein stability index of a GFP-peptide fusion (yeast GPS) (PSI 1-4); higher = more stable; sorted into four equal gates, so the index is relative within each strain
How it was run: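 Yeast carrying a pooled library were grown to mid-log phase in leucine-free medium. Each library plasmid expresses Cherry and has a tiled 17-residue yeast protein peptide fused downstream of GFP. Cells were sorted into four equal gates by GFP/Cherry ratio, and plasmids from each gate were PCR-amplified, Illumina-sequenced and assigned to strains by barcode. Summing, across gates, the read frequency times the gate number gave each peptide's protein stability index.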

Sequence	protein stability index (doa10∆)	protein stability index (pdr5∆)	protein stability index (san1∆)	protein stability index (ubr1∆)
VKYINFGKTVKDGPFYT [RPC31]	3 ± 0.1	2.84 ± 0.085	2.35 ± 0.061	2.29 ± 0.044
NGALDPKMGVSSSSLEC [RPO31]	3.21 ± 0.097	3.41 ± 0.049	3.22 ± 0.067	3.21 ± 0.047
LVQLFLWDSKELEQLVE [RPN3]	2.64 ± 0.13	2.78 ± 0.084	2.08 ± 0.28	2.85 ± 0.083
MAKRTKKVGITGKYGVR [RPL43A]	3.36 ± 0.11	3.34 ± 0.094	3.09 ± 0.1	3.55 ± 0.082
NYIPGNPLVTPASIVPE [COB]	1.81 ± 0.068	2.36 ± 0.071	2.42 ± 0.1	2.56 ± 0.086
MDAYSTRPLTLSHGSLE [FAS1]	3.18 ± 0.11	3.15 ± 0.1	3.05 ± 0.093	3.3 ± 0.087
ILLAGRFRGKRVVYLKH [RPL6A]	1.69 ± 0.078	2.17 ± 0.061	2.04 ± 0.1	2.12 ± 0.056
PYPGSPMHSIMPNSSLQ [DSN1]	2.85 ± 0.091	2.88 ± 0.052	2.63 ± 0.057	2.83 ± 0.034
SSIDKKSSILTVLQKNS [YML103C/NUP188]	1.79 ± 0.063	2.42 ± 0.083	2.4 ± 0.067	2.46 ± 0.058
PPPPPPSNFEINAEEIV [PRP8]	2.6 ± 0.038	3.04 ± 0.046	2.72 ± 0.039	2.9 ± 0.038
SVMPPNEVYSAYVVNDT [DLS1]	2.77 ± 0.087	2.95 ± 0.13	1.89 ± 0.28	3.04 ± 0.082
FGAKSDENKAGATSKPA [YJL041W/NSP1]	3.25 ± 0.11	3.23 ± 0.1	3.44 ± 0.065	3.25 ± 0.086
CLTMFEDRNESVNIAFA [ECM29]	2.42 ± 0.13	2.52 ± 0.094	2.81 ± 0.11	2.5 ± 0.073
DHLKLVSLFSNLRHERN [YIL149C/MLP2]	2.41 ± 0.092	2.67 ± 0.19	2.5 ± 0.26	2.44 ± 0.097
SVRTAVFSALKNLISRI [ECM29]	2.34 ± 0.049	2.31 ± 0.045	2.03 ± 0.064	2.53 ± 0.035
PAVKQWDLLPEPIRFLP [SWI1]	2.28 ± 0.058	2.27 ± 0.069	2.33 ± 0.055	2.53 ± 0.072
ALQNLSQLPITPMTRIS [YGL172W/NUP49]	2.31 ± 0.13	1.95 ± 0.12	1.66 ± 0.21	1.92 ± 0.065
LKSESATSQYLKQDLKK [YGL172W/NUP49]	2.81 ± 0.079	2.88 ± 0.072	2.9 ± 0.061	2.95 ± 0.079
NAKESNYTDLIWFPEDF [MED1]	3.06 ± 0.094	3.47 ± 0.17	3.17 ± 0.12	2.28 ± 0.052
IHQNAGRLLRAMFEICL [BRR2]	1.85 ± 0.053	1.75 ± 0.054	2.21 ± 0.063	2.83 ± 0.048
NNNDNNNSNTVASSTNF [SWI1]	2.92 ± 0.032	3.089 ± 0.03	2.94 ± 0.031	3.021 ± 0.028
LLLSPDQWYCIDKLEDL [ITC1]	3.06 ± 0.11	3.4 ± 0.11	3.22 ± 0.097	2.48 ± 0.077
PWGDYLQLETPAEVGRA [BRR2]	1.25 ± 0.062	1.8 ± 0.09	1.47 ± 0.088	1.19 ± 0.049
TVLCTPTGGKAKLSEGT [RPS27B]	3.25 ± 0.11	3.18 ± 0.079	3.15 ± 0.045	3.15 ± 0.1
ILCGIQEYLNPVIDTQI [YDL116W/NUP84]		2.12 ± 0.2	2.01 ± 0.17	
LLFWTDPRNLVNQTGST [YCG1]	2.41 ± 0.065	2.66 ± 0.064	2.83 ± 0.055	2.81 ± 0.038
NQSNLNGGNNTQQPGTN [SNF2]	2.76 ± 0.073	3.1 ± 0.075	3.08 ± 0.062	3.04 ± 0.056

Sequence	protein stability index (doa10∆)	protein stability index (pdr5∆)	protein stability index (san1∆)	protein stability index (ubr1∆)
SNTTTHVPEKKSTDLTP [MTR3]			2.15 ± 0.18	1.31 ± 0.29
AFSYPRMYEEASGKEVE [RPN2]	2.66 ± 0.09	1.34 ± 0.082	1.28 ± 0.11	1.35 ± 0.059
QLNLNNLTPANILNMSM [PGD1]	3.04 ± 0.1	3.19 ± 0.07	2.75 ± 0.067	3.02 ± 0.045
PFETFDHASIRRGYQVY [CYT1]	2.68 ± 0.048	2.65 ± 0.044	2.82 ± 0.047	2.9 ± 0.032
MDEMDNVIRSLEQEYRL [RMP1]	1.81 ± 0.064	1.21 ± 0.025	1.71 ± 0.15	2.05 ± 0.072
IVVQLNGRLNKCGVISP [RPS22A]	3.25 ± 0.19	3.35 ± 0.14	2.98 ± 0.093	3.49 ± 0.079
HSNESSNETIGEIQLLF [IRR1]	2.68 ± 0.11	2.83 ± 0.14	3.27 ± 0.082	2.92 ± 0.084
QPSDVMFNDLNSMDISM [MED2]	2.63 ± 0.043	2.99 ± 0.053	3.11 ± 0.043	2.76 ± 0.048
DLSEKILNDIETLEHNP [BRR2]	3.06 ± 0.055	3.21 ± 0.07	3.05 ± 0.055	3.13 ± 0.043
SMSLQSKNLGEINTALN [SWI1]	2.81 ± 0.12	2.9 ± 0.1		3.08 ± 0.12
IEANVTVKTSDDYVLRI [RPS1A]	2.98 ± 0.035	2.9 ± 0.038	2.96 ± 0.036	2.726 ± 0.027
MGEAQTGANFDDVERGV [REC8]	3.37 ± 0.093	2.98 ± 0.11	3.52 ± 0.17	3.24 ± 0.081
IVHHPYQSLKQIVQVLK [SSN8]	1.24 ± 0.061	1.58 ± 0.099	1.18 ± 0.14	1.25 ± 0.072
IDFFKTDDSFEDKVFAS [BRN1]	3.02 ± 0.13	2.88 ± 0.06	3 ± 0.093	2.89 ± 0.06
QDKSKKIMNVTTDSLTK [YMR129W/POM152]	3.25 ± 0.064	2.97 ± 0.06	3.1 ± 0.034	3.21 ± 0.044
LPFYAILRSIPDKLLGV [COB]	2.59 ± 0.041	2.07 ± 0.039	2.1 ± 0.055	1.99 ± 0.046
AGTTDNSFIKANLPWLG [RPN2]	1.48 ± 0.1	1.72 ± 0.064	1.39 ± 0.086	1.36 ± 0.065
FSSNERYFFWLQEKNSG [RPN13]	1.27 ± 0.048	1.65 ± 0.072	2.18 ± 0.076	2.25 ± 0.055
LSLGMDFIKFDQIAVCE [BRN1]	3 ± 0.085	3.01 ± 0.079	2.77 ± 0.057	2.89 ± 0.071
TYDKETITDLIEQGIPK [SIR4]	3.3 ± 0.049	3.39 ± 0.051	3.35 ± 0.04	3.41 ± 0.043
KDLKHIIYYKFNKNLGK [PRP8]	1.14 ± 0.052	1.28 ± 0.053	1.32 ± 0.11	1.17 ± 0.061
RRLPEDESYARAYRIIR [QCR7]	2.81 ± 0.056	2.72 ± 0.061	2.53 ± 0.043	2.42 ± 0.043
QMIQQRHQQLLRSRLQQ [SNF5]	2.08 ± 0.12	2.14 ± 0.15	2.71 ± 0.15	3.02 ± 0.12
FVKFITYLTQEILILIN [SIN4]	2.02 ± 0.05	1.7 ± 0.044	1.57 ± 0.069	1.59 ± 0.042
RNEKIAVHVTVRGPKAE [RPL11A]	2.54 ± 0.067	2.3 ± 0.061	1.93 ± 0.12	2.62 ± 0.053
LIQLGVKPLESSAKRSK [SRP72]	3.11 ± 0.073	2.97 ± 0.11	2.56 ± 0.12	2.88 ± 0.045
LGSHSSSQKDGNDFKFN [REC8]	3.25 ± 0.07	3.24 ± 0.063	2.91 ± 0.081	3.22 ± 0.057

Sequence	protein stability index (doa10∆)	protein stability index (pdr5∆)	protein stability index (san1∆)	protein stability index (ubr1∆)
RGREEAASFKKLYKTPI [PRE10]	2.6 ± 0.17	3.06 ± 0.27	1.45 ± 0.2	2.97 ± 0.13
GAIKPFTPKLIYDFITL [ECM29]	1.73 ± 0.081	1.84 ± 0.098	1.87 ± 0.3	1.36 ± 0.062
NALTVGDFDKFDSLIKV [RPN9]	2.14 ± 0.13	1.59 ± 0.11	1.3 ± 0.14	1.3 ± 0.11
KIMQEATQSGGVRPFGV [PRE8]		2.45 ± 0.29		2.95 ± 0.1
FKRVSQTFEAKLHFKDT [NUT1]	2.96 ± 0.082	3.32 ± 0.1	3.41 ± 0.053	3.19 ± 0.051
LGQLYVTMGAKDKLREF [RPN6]	3.33 ± 0.12	3.13 ± 0.11	3.08 ± 0.078	3.12 ± 0.069
EAMYKLQLASLQQKQRD [SMC3]	2.71 ± 0.091	2.76 ± 0.078	2.52 ± 0.087	2.54 ± 0.063
LVTCEGSEEKAFVPKKR [SRP54]	2.19 ± 0.12	1.85 ± 0.11	1.62 ± 0.13	1.61 ± 0.066
VKKPHRYKPGTVALREI [HHT1]	3.15 ± 0.14	3.17 ± 0.1	2.75 ± 0.094	3.25 ± 0.12
SLMSSQNKLFYITNADD [SIR3]	2.77 ± 0.15	2.02 ± 0.12	3.07 ± 0.16	1.49 ± 0.095
NNNNNNNNNSTRPQMPS [GRR1]	2.891 ± 0.019	3.041 ± 0.017	3.062 ± 0.018	3.027 ± 0.018
FRVQSQSNYGIYSSDAQ [NUT1]	2.03 ± 0.053	2.51 ± 0.059	1.8 ± 0.074	2.42 ± 0.1
INVETVYDIMALEDEER [BRR2]	2.99 ± 0.092	2.8 ± 0.081	2.73 ± 0.066	2.79 ± 0.067
WRSKRIEQLFPVRPVRV [RPC53]	3.25 ± 0.14	3.11 ± 0.087	3.21 ± 0.071	3.08 ± 0.069
YVQVRQPIFVAHTAGRY [RPS5]	1.7 ± 0.064	1.84 ± 0.059	1.89 ± 0.11	1.74 ± 0.068
KKWKKYWQYKAGIPIGL [SWP82]	1.94 ± 0.067	2.25 ± 0.081	2.61 ± 0.11	2.01 ± 0.04
SSVEMLLDVVKGTEASN [YDL116W/NUP84]	2.89 ± 0.071	3.1 ± 0.091	2.55 ± 0.052	2.9 ± 0.063
KTPLLKQYLSASFSLKN [RPL6A]	2.01 ± 0.051	1.98 ± 0.054	2.25 ± 0.059	2.27 ± 0.042
KHGAVHLSTYLKVYKVG [RPL21A]	1.76 ± 0.07	1.69 ± 0.077	1.27 ± 0.2	3.02 ± 0.065
LTIKDIVLGVKDLQENL [RPO21]		2.86 ± 0.29	3.6 ± 0.048	
FSFSKSEEERKSSPISN [YOR098C/NUP1]	2.48 ± 0.11	2.23 ± 0.071	2.41 ± 0.091	2.94 ± 0.084
PEESKPINLQNGEEDEV [YLR335W/NUP2]	2.9 ± 0.075	2.92 ± 0.077	3.1 ± 0.046	3.1 ± 0.062
TMTMDVFNDAHVLNKVT [RPN1]	2.26 ± 0.065	2.25 ± 0.053	2.4 ± 0.073	2.25 ± 0.045
SNLQRAQNVPMNIIQQQ [GAL11]	2.47 ± 0.052	2.55 ± 0.047	2.34 ± 0.078	2.34 ± 0.031
NVAKNMKTPSLTVYLEP [RPO21]	3.07 ± 0.1	2.86 ± 0.085	2.94 ± 0.056	3 ± 0.1
MDFLNSMENTPKVPVSA [GAL11]	2.42 ± 0.094	2.45 ± 0.11	2.1 ± 0.13	2.37 ± 0.065
